Assay results from patent US7893032B2, “NgR variants and compositions thereof for suppressing axonal growth inhibition” (Yale University, priority 2005, dated 2011).

Legend:
[1] = test system: E7 chick DRG growth cones; assay: Nogo-induced growth cone collapse in E7 chick DRG neurons expressing NgR proteins; format: cell-based; conditions: for growth cone collapse in the presence of Nogo: E7 DRG cells expressing the protein from a viral vector, 100 μM Nogo-66 (FIG. 2 legend)
Experimental: (§1) FIG. 2 quantifies collapsed E7 (A) or E13 (B) chick DRG growth cones expressing the indicated proteins and exposed (dark) or not exposed (light) to 100 μM Nogo-66.
The signaling ability of the NgR mutant proteins was directly assessed by expressing the proteins in chick DRG neurons and monitoring Nogo-induced growth cone collapse. […] (FIG. 2A).

[2] = test system: E13 chick DRG growth cones; assay: Nogo-induced growth cone collapse in E13 chick DRG neurons overexpressing NgR proteins; format: cell-based; conditions: E13 DRG cells with endogenous NgR; 100 μM Nogo-66 (FIG. 2 legend)
Experimental: as §1
At E13, DRG neurons express NgR and respond to Nogo with growth cone collapse that is not altered by overexpression of wild-type NgR. (FIG. 2B). […] (FIG. 2B). Thus, NgR-R377Q is a dominant negative protein.

B1: wild-type NgR: Wild-type full-length human NgR protein (protein, listed as Homo sapiens)
chain: MKRASAGGSRLLAWVLWLQAWQVAAPCPGACVCYNEPKVTTSCPQQGLQAVPVGIPAASQRIFLHGNRISHVPAASFRACRNLTILWLHSNVLARIDAAAFTGLALLEQLDLSDNAQLRSVDPATFHGLGRLHTLHLDRCGLQELGPGLFRGLAALQYLYLQDNALQALPDDTFRDLGNLTHLFLHGNRISSVPERAFRGLHSLDRLLLHQNRVAHVHPHAFRDLGRLMTLYLFANNLSALPTEALAPLRALQYLRLNDNPWVCDCRARPLWAWLQKFRGSSSEVPCSLPQRLAGRDLKRLAANDLQGCAVATGPYHPIWTGRATDEEPLGLPKCCQPDAADKASVLEPGRPASAGNALKGRVPPGDSPPGNGSGPRHINDSPFGTLPGSAEPPLTAVRPEGSEPPGFPTSGPRRRPGCSRKNRTRSHCRLGQAGSGGGGTGDSEGSGALPSLTCSLTPLGLALVLWTVLGPC
growth cone collapse in the presence of Nogo [1]: exhibited growth cone collapse in the presence of Nogo | effect of overexpression on extent of Nogo-induced growth cone collapse [2]: not altered

B2: NgR-R377Q: Full length human NgR R377Q mutant protein (protein)
chain: MKRASAGGSRLLAWVLWLQAWQVAAPCPGACVCYNEPKVTTSCPQQGLQAVPVGIPAASQRIFLHGNRISHVPAASFRACRNLTILWLHSNVLARIDAAAFTGLALLEQLDLSDNAQLRSVDPATFHGLGRLHTLHLDRCGLQELGPGLFRGLAALQYLYLQDNALQALPDDTFRDLGNLTHLFLHGNRISSVPERAFRGLHSLDRLLLHQNRVAHVHPHAFRDLGRLMTLYLFANNLSALPTEALAPLRALQYLRLNDNPWVCDCRARPLWAWLQKFRGSSSEVPCSLPQRLAGRDLKRLAANDLQGCAVATGPYHPIWTGRATDEEPLGLPKCCQPDAADKASVLEPGRPASAGNALKGRVPPGDSPPGNGSGPQHINDSPFGTLPGSAEPPLTAVRPEGSEPPGFPTSGPRRRPGCSRKNRTRSHCRLGQAGSGGGGTGDSEGSGALPSLTCSLTPLGLALVLWTVLGPC
modifications: Human NgR R377Q mutant
notes: Full length human NgR R377Q mutant protein
growth cone collapse in the presence of Nogo [1]: did not | signaling ability (signal transduction) ([1]; E7 DRG cells expressing the protein, Nogo-induced growth cone collapse as readout): inactive in signal transduction | effect of overexpression on extent of Nogo-induced growth cone collapse [2]: significantly decreased
